Assay results from article PMC3297582, “Spo0A∼P Imposes a Temporal Gate for the Bimodal Expression of Competence in Bacillus subtilis” (PLoS Genetics, 2012).

Target: the molecule itself
Experiment: SEC; Superdex 200 column; Spo0A after phosphorylation with phosphoramidate; buffer not stated

B1: Spo0A∼P (phosphorylated form of the response-regulator protein Spo0A) (natural protein, Bacillus subtilis, UniProt P06534 1-267, looked up)
chain: MEKIKVCVADDNRELVSLLSEYIEGQEDMEVIGVAYNGQECLSLFKEKDPDVLVLDIIMPHLDGLAVLERLRESDLKKQPNVIMLTAFGQEDVTKKAVDLGASYFILKPFDMENLVGHIRQVSGNASSVTHRAPSSQSSIIRSSQPEPKKKNLDASITSIIHEIGVPAHIKGYLYLREAISMVYNDIELLGSITKVLYPDIAKKFNTTASRVERAIRHAIEVAWSRGNIDSISSLFGYTVSMTKAKPTNSEFIAMVADKLRLEHKAS
modifications: phosphorylated with phosphoramidate (residue not given; fraction phosphorylated uncertain)
notes: Spo0A, response regulator of Bacillus subtilis, full length, phosphorylated in vitro; also called OA∼P; source: purified following a published protocol [41] as modified [42]; phosphorylated with non-radioactive phosphoramidate
stoichiometry N: 2
